System: MS2 coat protein
Test: apparent KD of MS2 coat protein; higher = weaker reporter binding
Conditions: Eterna round: R107
How it was run: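 Designed RNA switches, transcribed on-chip from Illumina sequencing clusters, were titrated with SNAP-549-labelled MS2 coat protein from 0.7 or 1.5 nM to 3 µM in twofold steps. The solution was 100 mM Tris-HCl pH 7.5, 80 mM KCl, 4 mM MgCl2, with constant ligand or without it. Apparent KD is the median over each design's normalised cluster binding-curve fits.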

[1] = input ligand: theophylline 20 uM
[2] = input ligand: theophylline 2 mM
[3] = input ligand: tryptophan 2.4 mM

Sequence	apparent KD of MS2 coat protein (input ligand: arginine 13.2 mM) [µM]	apparent KD of MS2 coat protein (input ligand: none) [µM]	apparent KD of MS2 coat protein [1] [µM]	apparent KD of MS2 coat protein [2] [µM]	apparent KD of MS2 coat protein [3] [µM]
UAAAGUAGGUCCAAUAAAACUACAUGUGAAGGAGCGCGCGAAAGCGCAGGUAGGUCGCACAUGAGGAUCACCCAUGUCCUACAAU [MAT - Exclusion Arginine A - Mod of Eli - D17]	0.0426	0.0515	0.0691	0.0682	0.043
UAACAUGAGGAUCACCCAUGUAUAGUCGAUACCAGCUCAAGGGAGAGCCCUUGGCAGCGACACUGGUAUCCAUGGGUGUGGAUAC [(Ms2)-(Theo)-(T)'-(M)'-(T)''_Design3]	0.0769		0.0862		0.0698
UAACAUGAGGCGGCCGCCACUCAACAUGAGGAUCACCCAUGUAUGUGUAAACAUGAGGAUCACCCGAGGACCGGGCCCUUGUAAU [Same State Tryptophan B 4]	0.0252	0.0334	0.0467	0.0395	0.0542
UAACGGCACUGAAGGAGCGAGUUGACAAACAUGAGGAUCACCCAUGUUAUGGGUUGUUAAUCUCAGGUAGGUCGCAGUUGUCGUA [Same State Arginine B GF 20]	0.129	0.348	0.387	0.511	0.365
UAAUAAGUACCGGUCCUCAGAUCCUCAUGUCGAGGACCGGUACGGCCGCCACUCGAAACAUGAGGAUCACCCAUGUAAUAAUAAU [#06 Exclusion Tryptophan A]	0.0245		0.0526	0.0443	
UAAUCCGGUCCUCGAUAACAUGGGUGAAUACGAGGACCGGUACGGCCGCCACUCGAUAACAUGAGGAUCACCCAUGUAAUAAUAA [|T'-M'-Trp-Ms2|_Design15]	0.0382		0.111	0.0736	
UAAUGCAGGUCGGCCGCCACUACAACAUGAGGAUCACCCAUGUACAUGUUGUAGUACGGUAUGAGUAGGACCGGGACCUGCAUAA [Trp-Ms2-M'-T'-(MT)'_Design1]	0.213	0.299	0.154	0.594	0.787
UAAUGUGAGAGAAGGAGCGGAGGUCUCGUUACAACAUGAGGAUCACCCAUGUAACGUACCGUCCAGGUAGGUCGCUCUCGGGCGC [lvacmullin]	0.0174	0.0132	0.0244	0.0172	0.0152
UAAUUUAUAGGGUAUAUCAGAUUAACUGAAGGAGCGUGGUAAUACACAGGUAGGUCGCAGAUGGAACAUGAGGAUCACCCAUGUU [JR_ExcArginiA_Sub016]	0.0176	0.02	0.027	0.0257	0.0212
UACAUAUGCCGAAGGAGCGCGAGAAGCAAAGCUUCAUUCCUCACAUGAGGAUCACCCAUGUCGCAGGUAGGUCGCGGCAUAUGUU [#15 Exclusion - Arginine B]	0.0237	0.0218	0.042	0.0282	0.024
UACAUAUGCCGAAGGAGCGUGAGAUGCAAAGCAUCAUUCCUCACAUGAGGAUCACCCAUGUCACAGGUAGGUCGCGGCAUAUGUU [ArgBX 3]	0.0943	0.09	0.115	0.117	0.0969
UACCCAUGAGUUGGAAAAGCUCAUGGGUAUCGAGGACCGGUACGGCCGCCACUCGGCUGUACAUGAGGAUCACCCAUGUCAGGGU [#1 Same State - Tryptophan A Attempt #24 (HarryS)]	0.0299		0.367	0.721	
UACCUUAACACGGCCGCCACUCUCUAAUAGGAUCAUGGUACCGCACAUGAGGAUCACCCAUGUUUGAGGACCGGGUGUUAUGAAG [theeternabot_sameState_MS2_Trp_B_24]	0.0148		0.025	0.0202	
UACUUGCUGACGGCCGCCACUAGAACAUGAGGAUCACCCAUGUACGGCGGCCGUCAUGGGUGGACUAGGACCGGGUCAGCAAGAU [(Trp1)-(Ms2)-(T)'-(M)'-(Trp2)_Design6]	0.0107	0.012	0.0205	0.0139	0.0132
UACUUGCUGACGGCCGCCACUAGAACAUGAGGAUCACCCAUGUAUGGCGGCCGAAUCCUCAUGACUAGGACCGGGUCAGCAAGAU [(Trp1)-(Ms2)-(T)'-(M)'-(Trp2)_Design2]	0.00818	0.00809	0.0125	0.00875	0.00822
UACUUGCUGACGGCCGCCACUAGAACAUGAGGAUCACCCAUGUAUGGCGGCCGUCAUGGGUGGACUAGGACCGGGUCAGCAAGAU [(Trp1)-(Ms2)-(T)'-(M)'-(Trp2)_Design7]	0.0114		0.0146	0.0117	
UAGACGGCCGGAAGGAGCGGUACAUGAGGAUCACCCAUGUAUCUCUGGGCAUCCGUAGAGUGCCAGGUAGGUCGCCGGUUGCGGG [XArg-B22]	0.0123	0.011	0.0138	0.0115	0.0114
UAGCAUAGUACGGCCGCCACUCCUGGUUCCCGGCCGUGUGUAAGACAUGAGGAUCACCCAUGUAGGAGGACCGGGUAUCGCUUGC [theeternabot_sameState_MS2_Trp_B_22]	0.0125		0.0202	0.0156	

Reference: the supplement of paper PMC9170038
